{"source": "patent US20140178293A1", "about": "“METHODS FOR IMAGING BONE PRECURSOR CELLS USING DUAL-LABELED IMAGING AGENTS TO DETECT MMP-9 POSITIVE CELLS” (BAYLOR COLLEGE OF MEDICINE, priority 2011, published 2014)", "key": {"[1]": {"assay": "characterization of fluorescent properties", "assay_type": "physicochemical", "method": "Fluorescence intensity of the fluorophores was determined using the Fluorolog Tau-3 Spectrofluorometer (Horiba Jobin Yvon, Edison, N.J.) with excitation from a xenon arc lamp and absorbance was recorded using the DU-800 Spectrophotometer (Beckman Coulter, Brea Calif.). Fluorescence excitation and emission spectra were obtained at wavelengths of 785 and 830 nm respectively, with an integration time of 0.3 seconds for 1 μM solutions of IRDye 800CW, M2 and ^68Ga-M2 (n=4). Fluorescence measurements for IRDye 800CW and M2 were performed in aqueous solution under ambient conditions, whereas ^68Ga-M2 was prepared as previously described in NaOAc (pH 4) to provide an accurate representation of the ^68Ga-labeling scheme. Extinction coefficients were determined from the slope of absorbance at 785 nm as a function of the concentration of serial dilutions of each agent. Fluorescence quantum yield was determined by the comparative method of Williams et al. (Williams et al., 1983) using the quantum yield of ICGO (Φ=0.016) at 785/830 nm as a standard."}, "MMP-9 [2]": {"molecular_target": "T1, MMP-9 (Mus musculus, UniProt P41245)", "T1 sequence (P41245 108-730)": "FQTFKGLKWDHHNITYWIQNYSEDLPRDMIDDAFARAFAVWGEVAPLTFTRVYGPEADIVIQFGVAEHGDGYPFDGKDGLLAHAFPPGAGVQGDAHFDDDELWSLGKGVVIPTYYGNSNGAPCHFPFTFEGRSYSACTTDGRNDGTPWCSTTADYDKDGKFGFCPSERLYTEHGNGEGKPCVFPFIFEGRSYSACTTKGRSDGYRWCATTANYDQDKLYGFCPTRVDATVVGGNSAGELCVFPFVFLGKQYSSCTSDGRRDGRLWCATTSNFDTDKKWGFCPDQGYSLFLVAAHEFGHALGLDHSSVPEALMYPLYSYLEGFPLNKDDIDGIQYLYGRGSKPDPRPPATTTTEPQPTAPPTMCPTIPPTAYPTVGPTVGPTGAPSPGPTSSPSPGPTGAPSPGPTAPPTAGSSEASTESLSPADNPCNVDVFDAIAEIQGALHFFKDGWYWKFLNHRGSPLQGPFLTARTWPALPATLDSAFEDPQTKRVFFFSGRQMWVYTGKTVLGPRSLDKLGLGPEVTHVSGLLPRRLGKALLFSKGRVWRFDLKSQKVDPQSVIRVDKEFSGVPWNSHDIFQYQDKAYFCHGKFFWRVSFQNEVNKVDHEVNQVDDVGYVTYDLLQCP"}, "[3]": {"conditions": "aqueous solution, 785/830 nm, used as standard; cited from earlier work"}, "[4]": {"assay": "in vitro stability of ^64Cu-M2 in PBS or 500-fold excess DTPA (radio-HPLC)", "assay_type": "physicochemical", "conditions": "room temperature, normalized to 100% at t=0", "method": "(§1) After radiolabeling, 150 μl of ^64Cu-M2 was diluted in equal volumes of PBS or DTPA solution and kept at room temperature. Aliquots were taken at 0, 2, 6 and 24 hrs post-incubation and analyzed by radio-HPLC. To evaluate serum stability, 150 μl of ^64Cu-M2 was added to 150 μl of 50% mouse serum and incubated at 37° C. An 80 μl aliquot was taken at each of the above-mentioned time points and added to 160 μl ice-cold acetonitrile. The samples were centrifuged at 14,000 g for 5 min and the supernatant was collected and analyzed by radio-HPLC."}, "in vitro": {"assay": "in vitro", "assay_type": "in vitro ADME", "conditions": "mouse, serum", "method": "as §1"}, "MMP-9 [5]": {"molecular_target": "T1, MMP-9", "assay": "in vivo NIR fluorescence imaging of ^64Cu-M2 in murine model of BMP-2 induced HO", "set-up": "injected intramuscularly into each hind limb quadriceps muscle of nonobese diabetic/severely compromised immunodeficient (NOD/SCID) mice; from tissue; host or cells: hind limb muscle of living NOD/SCID mice injected with AdBMP2- or Adempty-transduced human fibroblasts", "method": "NIR fluorescence images were acquired using custom-built fluorescence imaging systems (Houston et al., 2005) 18 hours after intravenous administration of ^64Cu-M2. Briefly, a field of view was illuminated with 785 nm of light from a laser diode, outfitted with a convex lens and diffuser to create a uniform excitation field. The fluorescence was collected through holographic and interference filters placed before a Nikon camera lens. The images were finally captured by an electron-multiplying charge-coupled device camera (PhotonMax 512; Princeton Instruments, Princeton, N.J.) with 200 to 400 milliseconds of integration time. For acquisition of white-light images, the optical filters were removed, and a low-power lamp illuminated the subject. Image acquisition was accomplished by V++ software (Aukland, New Zealand)."}, "[6]": {"molecular_target": "MMP-9 (AnaSpec, Fremont, Calif.) (UniProt P14780 107-707, limits assumed)", "sequence (P14780 107-707 limits assumed)": "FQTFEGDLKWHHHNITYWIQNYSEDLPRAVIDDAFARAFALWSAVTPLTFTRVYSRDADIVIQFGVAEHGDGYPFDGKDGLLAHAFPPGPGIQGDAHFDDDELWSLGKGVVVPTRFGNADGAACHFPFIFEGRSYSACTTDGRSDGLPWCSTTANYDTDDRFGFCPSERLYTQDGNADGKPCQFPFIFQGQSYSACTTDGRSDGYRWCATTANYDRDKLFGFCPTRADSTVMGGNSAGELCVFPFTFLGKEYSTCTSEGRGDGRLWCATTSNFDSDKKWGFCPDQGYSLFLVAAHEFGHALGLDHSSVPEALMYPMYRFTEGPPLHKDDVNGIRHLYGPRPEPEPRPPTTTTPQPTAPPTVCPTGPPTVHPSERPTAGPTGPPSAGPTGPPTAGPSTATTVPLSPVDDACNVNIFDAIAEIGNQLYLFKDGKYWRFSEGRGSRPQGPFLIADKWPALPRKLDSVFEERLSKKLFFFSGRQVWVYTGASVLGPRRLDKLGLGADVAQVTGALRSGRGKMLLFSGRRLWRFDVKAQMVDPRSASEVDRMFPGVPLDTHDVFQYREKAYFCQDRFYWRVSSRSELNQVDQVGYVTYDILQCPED", "assay": "cell-based or functional assay"}, "[7]": {"molecular_target": "MMP-9 in mouse hind limb tissue (BMP-2 induced HO model, NOD/SCID mice) (mouse, UniProt P41245 108-730, limits assumed)", "sequence (P41245 108-730 limits assumed)": "as the sequence (P41245 108-730) above", "assay": "cell-based or functional assay"}, "[8]": {"conditions": "1 μM solutions, IRDye 800CW and M2 aqueous, ^68Ga-M2 in NaOAc pH 4"}, "[9]": {"conditions": "4 days post-implantation with 200x M1 as blocking (24 hours prior)"}}, "note": "Like-named read-outs stand apart in the source and are kept apart here. Positions of bridges follow the written chain, without caps; N, C: chain ends. No end group written: not given here. *: point of attachment. DOTA = O=C(O)CN1CCN(CC(=O)O)CCN(CC(=O)*)CCN(CC(=O)O)CC1", "data": [{"molecule": "CC1(C)C(=CC=C2CCCC(C=CC3=[N+](CCCCCC(=O)[O-])c4ccc(S(=O)(=O)[O-])cc4C3(C)C)=C2Oc2ccc(S(=O)(=O)[O-])cc2)N(CCCCS(=O)(=O)[O-])c2ccc(S(=O)(=O)[O-])cc21.[Na+].[Na+].[Na+].[Na+]", "note": "[IRDye 800CW, reference compound]", "values": [{"measurement": "Emission maximum", "setting": "[1]; [8]", "value": 830, "unit": "nm"}, {"measurement": "Excitation wavelength", "setting": "[1]; [8]", "value": 785, "unit": "nm"}, {"measurement": "Quantum yield", "setting": "[1]; 785/830 nm, relative to ICG (Φ=0.016)", "value": 0.034}, {"measurement": "Extinction coefficient", "setting": "[1]; absorbance at 785 nm, serial dilutions, mean ± SD (n=4)", "value": "181,458 ± 2,189 M^−1cm^−1"}]}, {"molecule": "(lactam 2,10) DOTA-KKAHWGFTLD ({DOTA}-KKAHWGFTLD; lactam 2-10) [M1]", "values": [{"measurement": "bone formation by μCT after blocking dose", "setting": "MMP-9 [2]; 200-fold excess of M1, μCT after 7 days", "value": "still exhibited bone formation"}]}, {"molecule": "CC1(C)C(/C=C/C=C/C=C/C=C2\\N(CCCCS(=O)(=O)O)c3ccc4ccccc4c3C2(C)C)=[N+](CCCCS(=O)(=O)[O-])c2ccc3ccccc3c21", "note": "[ICG, indocyanine green]", "values": [{"measurement": "quantum yield of standard", "setting": "[3]", "value": 0.016}]}, {"molecule": "CC(C)C[C@@H]1NC(=O)[C@H]([C@@H](C)O)NC(=O)[C@H](Cc2ccccc2)NC(=O)CNC(=O)[C@H](Cc2c[nH]c3ccccc23)NC(=O)[C@H](Cc2c[nH]cn2)NC(=O)[C@H](C)NC(=O)[C@@H](NC(=O)[C@H](CCCCNC(=O)CCCCC[N+]2=C(C=CC3=C(Oc4ccc(S(=O)(=O)O)cc4)C(=CC=C4N(CCCCS(=O)(=O)O)c5ccc(S(=O)(=O)O)cc5C4(C)C)CCC3)C(C)(C)c3cc(S(=O)(=O)[O-])ccc32)NC(=O)CN2CCN(CC(=O)O)CCN(CC(=O)O)CCN(CC(=O)O)CC2)CCCCNC(=O)C[C@@H](C(=O)O)NC1=O", "note": "(single isomer, unassigned) [^64Cu-M2, metal not drawn]", "values": [{"measurement": "percentage of intact component", "setting": "[4]; DTPA, 2 hrs", "value": "97.8 ± 1.3", "unit": "%"}, {"measurement": "percentage of intact component", "setting": "[4]; DTPA, 6 hrs", "value": "97.7 ± 0.6", "unit": "%"}, {"measurement": "percentage of intact component", "setting": "[4]; DTPA, 24 hrs", "value": "96.4±1.1", "unit": "%"}, {"measurement": "percentage of intact component", "setting": "[4]; PBS, 24 hrs", "value": "98.9 ± 1.5", "unit": "%"}, {"measurement": "remaining at 2 h", "setting": "in vitro", "value": "99.6 ± 0.6", "unit": "%"}, {"measurement": "remaining at 6 h", "setting": "in vitro", "value": "94.8 ± 0.6", "unit": "%"}, {"measurement": "remaining at 24 h", "setting": "in vitro", "value": "53.7 ± 3.7", "unit": "%"}, {"measurement": "Target/background ratio (PET/CT)", "setting": "MMP-9 [2]; 2 days post-implantation, 200 μCi, 6 nmol i.v.", "value": "3.29±0.9"}, {"measurement": "Target/background ratio (PET/CT)", "setting": "MMP-9 [2]; [9]", "value": "1.44±0.66"}, {"measurement": "Target/background ratio (PET/CT)", "setting": "MMP-9 [2]; 4 days post-implantation, 200 μCi, 6 nmol i.v.", "value": "4.02±1.39"}, {"measurement": "Target/background ratio (PET/CT)", "setting": "MMP-9 [2]; 6 days post-implantation, 200 μCi, 6 nmol i.v.", "value": "3.41±0.51"}, {"measurement": "% injected dose/g (PET/CT)", "setting": "MMP-9 [2]; NOD/SCID, mouse, in vivo, iv, 6 nmol", "value": "0.61 ± 0.04", "unit": "% injected dose/g"}, {"measurement": "whole-body distribution", "setting": "MMP-9 [2]; mouse, in vivo, iv", "value": "slow clearance from circulation along with uptake in the liver and kidneys"}, {"measurement": "Target/background ratio (NIR)", "setting": "MMP-9 [5]; 2 days post-implantation, 18 hours after i.v. administration", "value": "1.13 ± 0.03"}, {"measurement": "Target/background ratio (NIR)", "setting": "MMP-9 [5]; [9]", "value": "1.13 ± 0.18"}, {"measurement": "Target/background ratio (NIR)", "setting": "MMP-9 [5]; 4 days post-implantation, 18 hours after i.v. administration", "value": "1.24 ± 0.05"}, {"measurement": "Target/background ratio (NIR)", "setting": "MMP-9 [5]; 6 days post-implantation, 18 hours after i.v. administration", "value": "1.10 ± 0.03"}]}, {"molecule": "{DOTA}-KKAHWGFTLD (lactam 2-10; also: IRDye 800CW conjugated through an amine, site not given here)", "note": "[dual-conjugate M2 (M1 conjugated with IRDye 800CW)]", "values": [{"measurement": "inhibition of MMP-9 by gelatin zymography", "setting": "[6]", "value": "10 fold decrease compared to M1"}]}, {"molecule": "{DOTA}-KKAHWGFTLD (lactam 2-10; also: DOTA chelating 64Cu, IRDye 800CW conjugated through a reactive amine group)", "note": "[^64Cu-M2]", "values": [{"measurement": "Target/background ratio (NIR), day 2 post-implantation", "setting": "[7]", "value": 1.13, "unit": "ratio"}, {"measurement": "Target/background ratio (NIR), day 4 post-implantation", "setting": "[7]", "value": 1.24, "unit": "ratio"}, {"measurement": "Target/background ratio (NIR), day 4 with 200x M1 as blocking", "setting": "[7]", "value": 1.13, "unit": "ratio"}, {"measurement": "Target/background ratio (NIR), day 6 post-implantation", "setting": "[7]", "value": 1.1, "unit": "ratio"}, {"measurement": "Target/background ratio (PET/CT), day 2 post-implantation", "setting": "[7]", "value": 3.29, "unit": "ratio"}, {"measurement": "Target/background ratio (PET/CT), day 4 post-implantation", "setting": "[7]", "value": 4.02, "unit": "ratio"}, {"measurement": "Target/background ratio (PET/CT), day 4 with 200x M1 as blocking", "setting": "[7]", "value": 1.44, "unit": "ratio"}, {"measurement": "Target/background ratio (PET/CT), day 6 post-implantation", "setting": "[7]", "value": 3.41, "unit": "ratio"}]}]}
